Assay results from PMC11464748, “A novel assay of excess plasma kallikrein-kinin system activation in hereditary angioedema” (Frontiers in Allergy, 2024).
Where “and” joins values, the source holds several entries; their conditions need not be identical. Equal entries are not always repeated.

Experiments:
Conditions in all cases: both partners purified
[1] = target: T1, cleaved high-molecular-weight kininogen (HKa), purified (Homo sapiens, UniProt P01042, biotin (biotinylated HKa in the Fab screening ELISA) | biotin (biotinylated HKa in the Fab screening ELISA)); assay: SPR; in the absence of zinc chloride
T1 construct: heavy chain of HKa, the two-chain disulfide-linked product of high-molecular-weight kininogen after release of bradykinin, human; light chain of HKa, human; the purified HKa standard mainly consists of the 46-kDa light chain; also called cleaved HK; purified HKa standard protein; source: bought: Enzyme Research Laboratories

[2] = target: T1, cleaved high-molecular-weight kininogen …; assay: SPR; in the presence of zinc chloride
[3] = target: T2, cleaved high-molecular-weight kininogen (HKa) (Homo sapiens, UniProt P01042); assay: SPR; HKa immobilised by amine coupling on a CM5 chip (~400 RU), M4-B4 injected 2 min at 50 uL/min, 15 min dissociation; Biacore 3000, 25°C, HBS-P (10 mM HEPES pH 7.4, 150 mM NaCl, 0.005% P20); no added ZnCl2; 1:1 model
T2 construct: the two chains are linked by a disulfide; light chain of HKa (56-kDa or 46-kDa form); the purified HKa standard protein mainly consists of the 46-kDa light chain; also called cleaved HK; source: bought: Enzyme Research Laboratories
T2 sequence (P01042 whole entry, looked up): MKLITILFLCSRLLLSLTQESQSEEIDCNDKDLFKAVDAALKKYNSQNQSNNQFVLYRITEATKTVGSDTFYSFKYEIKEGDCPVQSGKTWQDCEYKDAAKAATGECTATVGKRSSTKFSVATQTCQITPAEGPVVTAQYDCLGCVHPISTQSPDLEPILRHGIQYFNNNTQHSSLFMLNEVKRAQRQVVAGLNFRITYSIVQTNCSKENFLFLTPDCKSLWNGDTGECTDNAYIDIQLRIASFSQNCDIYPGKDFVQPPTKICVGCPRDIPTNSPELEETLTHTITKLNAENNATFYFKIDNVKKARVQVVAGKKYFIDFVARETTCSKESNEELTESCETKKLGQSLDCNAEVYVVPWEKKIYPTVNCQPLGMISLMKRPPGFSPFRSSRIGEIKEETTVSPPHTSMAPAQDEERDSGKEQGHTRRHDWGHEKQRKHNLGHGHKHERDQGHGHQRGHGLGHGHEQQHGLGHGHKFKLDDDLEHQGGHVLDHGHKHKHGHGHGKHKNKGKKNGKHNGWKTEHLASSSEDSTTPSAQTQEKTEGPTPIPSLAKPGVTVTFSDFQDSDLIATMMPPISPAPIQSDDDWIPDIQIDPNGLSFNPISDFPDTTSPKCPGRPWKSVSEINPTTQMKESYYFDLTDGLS

[4] = target: T2, cleaved high-molecular-weight kininogen …; assay: SPR; HKa immobilised by amine coupling on a CM5 chip (~400 RU), M4-B4 injected 2 min at 50 uL/min, 15 min dissociation; Biacore 3000, 25°C, HBS-P (10 mM HEPES pH 7.4, 150 mM NaCl, 0.005% P20) with 200 uM ZnCl2; regeneration 10 mM glycine pH 1.5; 1:1 model

Kd [1]	Kd [2]	Kd [3]	koff [3]	kon [3]	Kd [4]	koff [4]	kon [4]	Binder
6.08 ± 0.26 nM	1.06 ± 0.25 nM	–	–	–	–	–	–	M4-B4 antibody (Fab or IgG, format not told for the experiment) (antibody, V domains shown, variable part as the heavy chain of m1; as the light chain of m1; The optimised ELISA coated 'the M4-B4 Fab or IgG'; also called HKa-specific antibody) VH: EVQLLESGGGLVQPGGSLRLSCAASGFTFSFYVMVWVRQAPGKGLEWVSGISPSGGNTAYADSVKGRFTISRDNSKNTLYLQMNSLRAEDTAVYYCARKLFYYDDTKGYFDFWGQGTLVTVSS VL: not shown
–	–	5.9 nM and 6.26 nM	0.0067 s⁻¹ and 0.00616 s⁻¹ and 0.00643 s⁻¹	1.1e+06 M⁻¹ s⁻¹ (2×) and 984000 M⁻¹ s⁻¹	1.09 nM and 1.24 nM and 0.881 nM	0.00125 s⁻¹ and 0.00172 s⁻¹ and 0.00156 s⁻¹ and 0.00164 s⁻¹	1.38e+06 M⁻¹ s⁻¹ and 1.77e+06 M⁻¹ s⁻¹ and 1.58e+06 M⁻¹ s⁻¹ and 1.15e+06 M⁻¹ s⁻¹	M4-B4 (antibody, V domains shown, The legend of the SPR says only 'M4-B4 injected'; also called M004-B04; 559B-M0004-B04; source: Fab: E. coli, purified (protein A Sepharose); IgG1: 293T cells, transiently expressed, purified (protein A Sepharose)) VH: EVQLLESGGGLVQPGGSLRLSCAASGFTFSFYVMVWVRQAPGKGLEWVSGISPSGGNTAYADSVKGRFTISRDNSKNTLYLQMNSLRAEDTAVYYCARKLFYYDDTKGYFDFWGQGTLVTVSS VL: not shown
